Measurements reported in patent publication US20250368745A1 (published 2025).
Numbering of substitutions follows the chain as printed. Names and notes keep the numbering of the source. Values joined by “and” are separate entries in the source; they are usually repeats but may differ in a detail not shown here. Equal values may be shown once.

B1: SA302a HC-D33Q (antibody, V domains shown)
VH: QVQLQESGPGLVKPSQTLSLTCTVSGYSITSQYNAHWIRQPPGKGLEWIGYIHYSGSTNYNPSLKSRVTISRDTSKNQFSLKLSSVTAADTAVYYCARNYGSIYVNYFDYWGQGTLVTVSS
VL: EIVLTQSPATLSLSPGERATLSCSASSSVSYMYWYQQKPGQAPRPLIYRTSNLASGIPARFSGSGSGTDFTLTISSLEPEDFAVYYCQQYHSYPTFGGGTKVEIK
notes: IgG1 kappa
B2: SA302a HC-D33T (antibody, V domains shown)
VH: B1 VH with Q32T
VL: B1 VL
notes: IgG1 kappa
B3: SA302a HC-D33V (antibody, V domains shown)
VH: B1 VH with Q32V
VL: B1 VL
notes: IgG1 kappa
B4: SA302a HC-D33Y (antibody, V domains shown)
VH: B1 VH with Q32Y
VL: B1 VL
notes: IgG1 kappa
B5: SA302a HC-H35A (antibody, V domains shown)
VH: B1 VH with Q32D, H36A
VL: B1 VL
notes: IgG1 kappa
B6: SA302a HC-H35E (antibody, V domains shown)
VH: B1 VH with Q32D, H36E
VL: B1 VL
notes: IgG1 kappa
B7: SA302a HC-H35K (antibody, V domains shown)
VH: B1 VH with Q32D, H36K
VL: B1 VL
notes: IgG1 kappa
B8: SA302a HC-H35M (antibody, V domains shown)
VH: B1 VH with Q32D, H36M
VL: B1 VL
notes: IgG1 kappa
B9: SA302a HC-H35P (antibody, V domains shown)
VH: B1 VH with Q32D, H36P
VL: B1 VL
notes: IgG1 kappa
B10: SA302a HC-H35T (antibody, V domains shown)
VH: B1 VH with Q32D, H36T
VL: B1 VL
notes: IgG1 kappa
B11: SA302a HC-H35V (antibody, V domains shown)
VH: B1 VH with Q32D, H36V
VL: B1 VL
notes: IgG1 kappa
B12: SA302a HC-T30S (antibody, V domains shown)
VH: B1 VH with T30S, Q32D
VL: B1 VL
B13: SA302a HC-T30N (antibody, V domains shown)
VH: B1 VH with T30N, Q32D
VL: B1 VL
B14: SA302a HC-T30F (antibody, V domains shown)
VH: B1 VH with T30F, Q32D
VL: B1 VL
B15: SA302a HC-T30Y (antibody, V domains shown)
VH: B1 VH with T30Y, Q32D
VL: B1 VL
B16: SA302a HC-T30V (antibody, V domains shown)
VH: B1 VH with T30V, Q32D
VL: B1 VL
B17: SA302a HC-T30I (antibody, V domains shown)
VH: B1 VH with T30I, Q32D
VL: B1 VL
B18: SA302a HC-T30G (antibody, V domains shown)
VH: B1 VH with T30G, Q32D
VL: B1 VL
B19: SA302a HC-T30Q (antibody, V domains shown)
VH: B1 VH with T30Q, Q32D
VL: B1 VL
B20: SA302a HC-T30E (antibody, V domains shown)
VH: B1 VH with T30E, Q32D
VL: B1 VL
B21: SA302a HC-T30A (antibody, V domains shown)
VH: B1 VH with T30A, Q32D
VL: B1 VL
B22: SA302a HC-T30L (antibody, V domains shown)
VH: B1 VH with T30L, Q32D
VL: B1 VL
B23: SA302a HC-T30M (antibody, V domains shown)
VH: B1 VH with T30M, Q32D
VL: B1 VL
B24: SA302a HC-S31V (antibody, V domains shown)
VH: B1 VH with S31V, Q32D
VL: B1 VL
B25: SA302a HC-S31N (antibody, V domains shown)
VH: B1 VH with S31N, Q32D
VL: B1 VL
B26: SA302a HC-S31F (antibody, V domains shown)
VH: B1 VH with S31F, Q32D
VL: B1 VL
B27: SA302a HC-S31L (antibody, V domains shown)
VH: B1 VH with S31L, Q32D
VL: B1 VL
B28: SA302a HC-S31H (antibody, V domains shown)
VH: B1 VH with S31H, Q32D
VL: B1 VL
B29: SA302a HC-S31Y (antibody, V domains shown)
VH: B1 VH with S31Y, Q32D
VL: B1 VL
B30: SA302a HC-S31I (antibody, V domains shown)
VH: B1 VH with S31I, Q32D
VL: B1 VL
B31: SA302a HC-S31G (antibody, V domains shown)
VH: B1 VH with S31G, Q32D
VL: B1 VL
B32: SA302a HC-S31T (antibody, V domains shown)
VH: B1 VH with S31T, Q32D
VL: B1 VL
B33: SA302a HC-S31E (antibody, V domains shown)
VH: B1 VH with S31E, Q32D
VL: B1 VL
B34: SA302a HC-S31A (antibody, V domains shown)
VH: B1 VH with S31A, Q32D
VL: B1 VL
B35: SA302a HC-S31P (antibody, V domains shown)
VH: B1 VH with S31P, Q32D
VL: B1 VL

Target: T1, human IL-18BP (human, UniProt O95998 31-194)
T1 construct: UniProt printed as 095998; also called hIL-18BP
T1 sequence: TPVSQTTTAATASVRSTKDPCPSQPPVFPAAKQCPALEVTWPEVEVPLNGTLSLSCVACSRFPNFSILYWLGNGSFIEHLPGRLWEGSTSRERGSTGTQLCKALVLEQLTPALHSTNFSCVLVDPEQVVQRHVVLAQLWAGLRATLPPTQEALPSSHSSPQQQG
Assay: BLI, apparent KD

Binder | Kd
B1 | 2.92 nM
B2 | 5.17 nM and 8.95 nM
B3 | 5.42 nM
B4 | 3.79 nM
B5 | 6.41 nM
B6 | 1.57 nM
B7 | 0.44 nM
B8 | 2.18 nM
B9 | 0.88 nM
B10 | 2.23 nM
B11 | 2.42 nM
B12 | 0.66 nM
B13 | 1.5 nM
B14 | 1.29 nM
B15 | 1.15 nM
B16 | 1.08 nM
B17 | 1.79 nM
B18 | 1.38 nM

Binder | Kd
B19 | 1.28 nM
B20 | 2.08 nM
B21 | 1.32 nM
B22 | 1.22 nM
B23 | 1.54 nM
B24 | 1.09 nM
B25 | 0.98 nM
B26 | 0.79 nM
B27 | 0.98 nM
B28 | 0.57 nM
B29 | 1.11 nM
B30 | 1.01 nM
B31 | 1.64 nM
B32 | 1.02 nM
B33 | 1.53 nM
B34 | 0.92 nM
B35 | 4.37 nM
